The values below come from article PMC6791372 (ACS chemical biology, 2019).

This data set deals with the molecule itself. Briefly: crystal structure.

B1: MetA crystallisation construct (C-terminal residues 297-309 truncated, P257I) (enzyme, E. coli, UniProt P07623 2-296, looked up)
chain: PIRVPDELPAVNFLREENVFVMTTSRASGQEIRPLKVLILNLMPKKIETENQFLRLLSNSPLQVDIQLLRIDSRESRNTPAEHLNNFYCNFEDIQDQNFDGLIVTGAPLGLVEFNDVAYWPQIKQVLEWSKDHVTSTLFVCWAVQAALNILYGIPKQTRTEKLSGVYEHHILHPHALLTRGFDDSFLAPHSRYADFPAALIRDYTDLEILAETEEGDAYLFASKDKRIAFVTGHPEYDAQTLAQEFFRDVEAGLDIDVPYNYFPHNDPQNTPRASWRSHGNLLFTNWLNYYVYQI
Regarding B1, the binding result is reported as “binds”.
